Source: patent publication US20070254850A1

Target: Fas on primary mouse hepatocytes (mouse) (UniProt P25446)
Test: cell-based or functional assay

Sequence of UniProt P25446 (P25446 22-327): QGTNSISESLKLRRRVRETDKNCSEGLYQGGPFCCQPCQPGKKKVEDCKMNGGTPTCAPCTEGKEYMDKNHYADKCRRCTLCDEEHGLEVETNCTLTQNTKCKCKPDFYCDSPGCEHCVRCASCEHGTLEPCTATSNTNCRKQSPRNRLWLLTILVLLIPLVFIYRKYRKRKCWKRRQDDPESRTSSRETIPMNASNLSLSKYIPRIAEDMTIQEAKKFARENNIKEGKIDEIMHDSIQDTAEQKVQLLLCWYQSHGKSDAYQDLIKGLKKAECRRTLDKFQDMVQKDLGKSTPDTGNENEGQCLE

TUNEL-stained cells, hepatocytes from Fas (sequence1)-siRNA treated mice (Fas expression silenced), Jo2 500 ng/mL for 24 hours: 7.9%
apoptotic cells by FITC-TUNEL staining, hepatocytes from untreated or mock-treated mice, Jo2 500 ng/mL for 24 hours: 87.8%
Substance: agonistic anti-Fas antibody (Jo2)
